Experimental data from article doi:10.1101/2022.06.09.495492.

Biological target: α-actin, endogenous (T. vaginalis) (T. vaginalis (endogenous in TH17 trophozoites))
Test: co-sedimentation

“TvFACPα (F-actin capping protein subunit α homolog), endogenous (natural protein)” was tested, and the percent co-sedimented with F-actin (F-actin fraction) was 25%.
